In the nanobody polyreactivity screen of Harvey et al. (2022):

Assay: yeast display, Sf9 membrane polyspecificity reagent, FACS + sequencing; frameworks hold sequencing errors
Summary of the method: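 Genes from sorted yeast were amplified by colony PCR, read by MiSeq 2 × 250 sequencing and filtered on CDR length. These cells carried a synthetic nanobody library in Saccharomyces cerevisiae BJ5465 and were sorted by FACS into low and high (top ~1%) gates on anti-HA and streptavidin fluorescence. Polyreactivity is labelled according to the gate of origin.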
For “QVQLVESGGGLVQAGGSLRLSCAASGSIFDGYAMGWYRQAPGKERELVAAISQRGGSTYYADSVKGRFTISRDNAKNTVYLQMNSLKPEDTAVYYCAADSSYGTREYWGQGTQVTVSS”, the “polyreactivity (PSR sort gate)” value was “low polyreactivity”.
With “QVQLVESGGGLVQAGGSLRLSCDASGSTFYPNAMGWYRQAPWKERELVAAITTSGGSTYYADSVKGRFTISRDNAKNTVYLQMNSLKPEDTAVYYCAAEVRDRGLEPYGPIYDYWGQGTQVTVSS” the “polyreactivity (PSR sort gate)” value was “high polyreactivity”.
For “QVHLVESGVGLVQAGGSLRLSCASSGRIFYDNSMGWYRQAPGKERELVAAISYRGGSTYYADSVKGRFTISRDNAKNTVYLLMNSLKPEDTAVYYCARAGFTTCPDHDSWGQGTQVTVSS”, the “polyreactivity (PSR sort gate)” value was “high polyreactivity”.
For “QVQLVESGGGLVQAGGSLRLSSAASGLIFTRYAMGWYRQATGKERELVAAISYSGTSTYYADSVKGRFTISRDNAKNTVYLQMNSLKPEDTAVYYCAARSSYPLKGYYWGQGTQVTVSS”, the “polyreactivity (PSR sort gate)” value was “high polyreactivity”.
With “QVQLVESGGGLVQAGGSLRLSCAASGYTSRSNAMGWYRQAPGKERELVAAIRGGGNTKYADSVKWRFTISRDNANNTVYLQMNSLKPEDTAVYYCAVVTGSFRTRYTYYYWGQGTQVTVSS” the “polyreactivity (PSR sort gate)” value was “high polyreactivity”.
For “QVQRVESGGGLVQAGGSLRFSCAASGSTFSYYAMGWYSQAPGKERELVAVISRGGSTNYADSVKGRFTISRDNAKNTVYLQMNSLKPEDTAVYYCAAYVLPWRGRGQTEYGYSGQGTQVTVSS”, the “polyreactivity (PSR sort gate)” value was “low polyreactivity”.
For “HVQLVESGGGLVQAGGSLRLSCAASGSICSWYGMGWYRQAPGKERELVAAITWTGGSTYYADSVKGRFTISRDNAKNTVYLQMNSLKQEDTAVYYCSADLRYVGFYYWGQGTQVTVSS”, the “polyreactivity (PSR sort gate)” value was “high polyreactivity”.
With “QVQLVESGGGLVQAGGSLRLSCAASGFIFYRNAMGWYRPAPGKERELVAAINRGGSTYYADSVKGRFTISRDNAKNTVYLQMNSLKPEDTAVYYCAAYHLRPSRYDYWGQGTQVTVSS” the “polyreactivity (PSR sort gate)” value was “high polyreactivity”.
With “QVQLVESGGGLVQARGSLRLSCAASGSTFLFYAMGWYRQPPGKERELVAAISRGDSTYYAESVKGRFTISRDIAKNTVYLQMNSLKPEDTAVYYCAAGYNHLYVYRMYYWGQGTQVTVSS” the “polyreactivity (PSR sort gate)” value was “high polyreactivity”.
For “QVQLVESGGGLVQAGGSLRLSCAASGSIFGIYVMGWYRQAPGKERELVAGISTRGGSTYYADSVKGRFTISRDNAKNTVYLQMNSLKPEDTAVYYCAAVPASYRYPMYYWGQGTQVNVSS”, the “polyreactivity (PSR sort gate)” value was “low polyreactivity”.
For “QVQLVESGGGLVQAGGSLRLSCAASGSTLPTNAMGWYRQAPGKERELVASNDQSGGSTYADSVKGRFTISRDNAKNTVYLQMNSLKPEDTAVYYCNARDSLRYYTYYFEYYRVGYEYWGQGTQVTVSS”, the “polyreactivity (PSR sort gate)” value was “high polyreactivity”.
With “QVQLVESGGGLVQAGGILRLSCAASGRIFTPYTMGWYRQAPGKERELVATITWSGGSTYYADSVKGRFTISRDNAKNTVYLQMNSLKPEDTAVYYCAARPIYVWAEYDYWGQGTQVTVSS” the “polyreactivity (PSR sort gate)” value was “low polyreactivity”.
With “QVQLVESGGGLVQAGGSLRLSCAASGSTFGYYAMGWYRQAPGKERELVATINRSGGSTYYADSVKGRFSISRDNAKNTVYLQMNSLKPEDTAVYYCNKLAYAGFGYIGSGYWGQGTQVTVSS” the “polyreactivity (PSR sort gate)” value was “low polyreactivity”.
With “QVQLVESGGGLVQAGGSLRLSCAASGSTFYSYVMGWYRQAPGKERELVAVISNDGSTNYADSVKGRFTISRDNAKNTVYLQMNSLKPEDTAVYYCNAEWTRDFYEYDYWGQGTQVTVSS” the “polyreactivity (PSR sort gate)” value was “low polyreactivity”.
For “QVQLVESGGGLVQAGGSLRLSCAASGITFYKYTMGWYRQAPGKERELVAAISVRGGRTYYADSVKGRFTISRDYAKNTVDLQMNSLKPEDTAVYYCAAGSQPGRKYYYWGQGTQVTVSS”, the “polyreactivity (PSR sort gate)” value was “high polyreactivity”.
For “QVQLVESGGGIVQAGGSLRLSCAASGFTFDIYAMGWYRQAPGTERELVATISFTGDTTSYADSVKGRFTISRDNAKNTVYLQMNSLKPEDTAVYYCAADGSYPLSVGRENLHYAEFDYWGQGTQVTVSS”, the “polyreactivity (PSR sort gate)” value was “low polyreactivity”.
With “QDQLVESGGGLDQAGGSLRLSCAASGNTFWPYAMGWYRQAPGKESEFVAAITFRGGSTYYADSVKGRFTISRDNAKNTVYLQMNSLKPEDTAVYYCNAERGVWSGYFGYDYWGQGTQVTVSS” the “polyreactivity (PSR sort gate)” value was “low polyreactivity”.
In the case of “QVQLVESGGGLVQAGGSLRLSCAASGRTFGRNAMGWYRQAPGKERELVADISLRGGRTYYADSVKGRFTISRDNAKNTVYLQMNSLKPEDTAVYYCAAVQPVGLYPRTKYYYWGQGTQVTVSS”, the “polyreactivity (PSR sort gate)” value was “high polyreactivity”.
In the case of “QVQLEESGGGLVQAGGSLRLSCAASGRIFYGYAMGWSRQAPGKERELVASISRRGSSTYYADSVKGRFTISRDNAKNTVYLQMNSLKPEDTAVYYCAAGYYPFNYWGQGTQVTVSS”, the “polyreactivity (PSR sort gate)” value was “high polyreactivity”.
For “QVHRVESGGGLVQAGASLRLSCAASGIIFDTYAMGCYRQAPGKEREIVAAITWNGGSTYYADSVKGRFTISRDNAKNPVYLQMNSLKPEDTPVYYCAKLPRTLTEYGYKGYYWGQGTQVTVSS”, the “polyreactivity (PSR sort gate)” value was “low polyreactivity”.
In the case of “QVQLVESGGGLVQAGGSLRLSCAASGRTFWYYTMGWYRQAPGKERELVASITYRGGSTYYADSVKGRFTISRDNAKNNVYLQMNSLKPEDTAVYYCNARYKRYSYDYWGQGTQVTVSS”, the “polyreactivity (PSR sort gate)” value was “high polyreactivity”.
For “QVQLVESGGGLVQAGGSLRLSCAASGLFFFYYAMGWYRQAPGKERELDAAIRTNYADSVKGRFTISRDNAKNTVYLQMNSLKPEDTAVYYCAAESSQTPTSAFDYWGQGTQVTVSS”, the “polyreactivity (PSR sort gate)” value was “low polyreactivity”.
For “QVQLVESGGGLVQAGGSLRLSCAASGRIFYYNAMGWYRPAPGKERELVAAITYIGGNTHYADSVKGRFTISRDNAKYTVYLQMNSLKPEDTAVYYCARGTVLGFYYEYGYWGQGTQVTVSS”, the “polyreactivity (PSR sort gate)” value was “low polyreactivity”.
In the case of “QVQLVESGGGLVQAGGSLRLSCAASGSIFDTYAMGWYRQAPGKERELVAAITQSGDRTYYADSVKGRFTISRDNAKNTVYLQMNSLKPEDTAVYYCYTRRGSAWSCDYWGQGTQVTVSS”, the “polyreactivity (PSR sort gate)” value was “low polyreactivity”.
In the case of “QVQLVESGGGLVQAGGSLRLSCAASGSIFRKYPMGWYRQAPGKDTELVAAISKRGGSTYYADSVKGRFTISRDNAKNTVYLQMNSLKPEDTAVYYFNALRRYVSVRPTKSDYWGQGTQVTVSS”, the “polyreactivity (PSR sort gate)” value was “high polyreactivity”.
In the case of “QVQLVESGGGLVQAGGSLRLSCAASGFTFWQYAMGWYRQAPGKERELVAAITRDVGSTYYADSVKGRFTISRDNAKNTVYLQMNSLKPEDTAVYYCAKLFGGTYYEYDYWGQGTHVTVSS”, the “polyreactivity (PSR sort gate)” value was “low polyreactivity”.
With “QVQLVESGGGLVQAVGSLRLSCAASGFPFRRYALGCYRQAPGKERELDATISSSGASTYYADSVKGRFTISRDHAKNTVYFKMIRLKPVDTAVYYCAATKGSICKLYLYCLFDYWGQGTQVTVSS” the “polyreactivity (PSR sort gate)” value was “high polyreactivity”.
With “QVQLVESGGGLVQAGGSLRLSCAASGRTFKRYAMGWYRQAPGKERELVAAISWSGTSTHYADSVKGRFTISRDNAKNTVYLQMNSLKPEDTAVYYCAARRYPVLNYDYWGQGTQVNVSS” the “polyreactivity (PSR sort gate)” value was “high polyreactivity”.
For “QVQLVESGGGLVQAGGSLRLSCAASGSTFKRYTMGWYRQAPGKERELVARISWGGSTTYYAYSVKGRFTISRDNAKNTVYLQMNSLKPEDTAVYYCAASWSWYGNRGTYRYPPRYDYWGQGTQVTVSS”, the “polyreactivity (PSR sort gate)” value was “high polyreactivity”.
In the case of “QVQIVESGGGLVQAGGSLRVSCAASGFTFDENAMGWYRQAPGINYSGASTYYADSVKGRFTISRDNAKNTVYLQMNSVKQDDTAVYYCAAEVVAQMNYWGQGTQVTVSS”, the “polyreactivity (PSR sort gate)” value was “low polyreactivity”.
For “QVQLVESGGGLVQAGGILRLSCAASGSIIYVNAMGWYRQAPGKERELVAAISVRGGRTYYADSVKGRFTISRDNAKNSVYLQMISLKPEDTAVYDCAAGWYYYARPRVYNAREYYYWGQGTQVNVSS”, the “polyreactivity (PSR sort gate)” value was “high polyreactivity”.
In the case of “QVQLVESCGGLVQAGGSLRLSCAASGIIFEGNTLGWYRQAPGKEREFVAAISRNGGSTSYADSVKGRFTISRDNAKNTVYLQINSLKPEDTAVYYCAADVESFWGWRYEYWGQGTQVTVSS”, the “polyreactivity (PSR sort gate)” value was “low polyreactivity”.
For “QVQLVESGGGLVQAGGSLRLSCAASGSIFNYNDMGWYRQAPGKERELVAAIDSSGTSTYYADSVKGRFTISRDNAKNTVYLQMNSLKPEDTAVYYCNADSSLGFGYWGQGTLVTVSS”, the “polyreactivity (PSR sort gate)” value was “low polyreactivity”.
In the case of “QVQLVESGGGLVQAGGSLRLSCAASGRTFRSYAMGWYRQAPGKDRELVAAISYGGGRTFYADSVKGRFTISRDNEKNTVYLQMNSLKPEDTAVYYCNAAFPRSYRFDYWGQGTQLTVSS”, the “polyreactivity (PSR sort gate)” value was “high polyreactivity”.
With “QVQLVESGGGLVQAGGSLRLSCAASGFIFGPYTMGWYRQAPGKERELVAAINNSGSTYYADSVKGRFTISRDNAKNTVYLQMNSLKPEDTAVYYCAAEPIIFVRYDYWGQGTQVTVSS” the “polyreactivity (PSR sort gate)” value was “low polyreactivity”.
In the case of “QVQLQESGGGLVQVGGSLRLSCAASGNIFIYGIMGWNRQAPGKERELVASINLGGITNYADSVKGRFTISRDNAKNTVYLQMISLKPEDTAVYYCAAYVVTGQNYGYWGQGTQVTVSS”, the “polyreactivity (PSR sort gate)” value was “low polyreactivity”.
For “QVHLVESGGGLVQAGGSLRLSCAASGITFFWYTMGWYRQAPGKDRELVAAISESGGDTYYADSVKGRFTISRDNAKNTVYLQMKILKPEDTAVYYCAADDSYYGLDYWGQGTQVTVSS”, the “polyreactivity (PSR sort gate)” value was “low polyreactivity”.
In the case of “QVQLVESGGGLVQAGGTLRLSCAASGIIFSFYTMGWYRQAPGKERELVAAITWSGGSTYYADSVKGRFTISRANAKNTVYLQMNSLKPEDTAVYYCNARNPWRKRSQGYSWGQGTQVTVSS”, the “polyreactivity (PSR sort gate)” value was “low polyreactivity”.
For “QVQLVESGGGLVQAGGSLRLSCAASGFIFTRYAMGWYRQAPGKEREFVARIDSSGGSTYYADSVKGRFTISRDNAKNTVYLQMNSLKPEDTAVYYCAAVGYRFGSYYWGQGTKVTVSS”, the “polyreactivity (PSR sort gate)” value was “high polyreactivity”.
In the case of “QVQLVESGRGLVQAGGSLLLSCAASGSTFDVYAMGWYRQAPGKERELVAAIRSSGGSTFYADSVKGRFTISRDNAKNIVYLQMNSLKPEDTAVYYCAARSFVVSGYNKYYEYGDWGQGTQVTVSS”, the “polyreactivity (PSR sort gate)” value was “low polyreactivity”.
For “QVQLLESGGGLVQAGGSLRLSCAASGRTCRWYAMGWYTQAPWKERELVAAISSSTASTYYADSVKGRFTISRDYAKITVYLQMNSLKPEDSAVYYCAKYYYRFPVCYDYWGLGTQVTVSS”, the “polyreactivity (PSR sort gate)” value was “high polyreactivity”.
